Data: the Human Domainome abundance scans (Beltran et al. 2025)
± gives the uncertainty stated by the source.

B1: Death-inducer obliterator 1, residues 263 to 321; numbered along this chain, Q9BTC0 (parent)
chain: GYDPNALYCICRQPHNNRFMICCDRCEEWFHGDCVGISEARGRLLERNGEDYICPNCTI

Variants of: B1
Assay: abundance fitness (aPCA) (normalised: wild type 0, dead -1); higher = more abundant; growth selection in yeast, the domain comes from the species named
Conditions: Homo sapiens

Q: With GYDPNALYCICRQPHNNRFMICCDRCEEWFHGDAVGISEARGRLLERNGEDYICPNCTI as the variant, how does the abundance fitness read?
A: -0.68 ± 0.12

Q: With GYDPNALYCICRQPHNNRFMICCDRCEEWFHGDPVGISEARGRLLERNGEDYICPNCTI as the variant, how does the abundance fitness read?
A: -0.803 ± 0.12

Q: Which abundance fitness does the source give for GYDPNALYCICRQPHNNRFMICCDRCEEWFHGDTVGISEARGRLLERNGEDYICPNCTI here?
A: -0.703 ± 0.092

Q: For GYDPNALYCICRQPHNNRFMICCDRCEEWFHGDQVGISEARGRLLERNGEDYICPNCTI, which abundance fitness is on record?
A: -0.644 ± 0.098

Q: With GYDPNALYCICRQPHNNRFMICCDRCEEWFHGDNVGISEARGRLLERNGEDYICPNCTI as the variant, how does the abundance fitness read?
A: -0.937 ± 0.15

Q: With GYDPNALYCICRQPHNNRFMICCDRCEEWFHGDLVGISEARGRLLERNGEDYICPNCTI as the variant, how does the abundance fitness read?
A: -0.805 ± 0.087

Q: Which abundance fitness does the source give for GYDPNALYCICRQPHNNRFMICCDRCEEWFHGDCFGISEARGRLLERNGEDYICPNCTI here?
A: -0.225 ± 0.083

Q: With GYDPNALYCICRQPHNNRFMICCDRCEEWFHGDCCGISEARGRLLERNGEDYICPNCTI as the variant, how does the abundance fitness read?
A: -0.113 ± 0.12

Q: Which abundance fitness does the source give for GYDPNALYCICRQPHNNRFMICCDRCEEWFHGDCEGISEARGRLLERNGEDYICPNCTI here?
A: -0.602 ± 0.1

Q: Which abundance fitness does the source give for GYDPNALYCICRQPHNNRFMICCDRCEEWFHGDCAGISEARGRLLERNGEDYICPNCTI here?
A: -0.058 ± 0.07

Q: With GYDPNALYCICRQPHNNRFMICCDRCEEWFHGDCDGISEARGRLLERNGEDYICPNCTI as the variant, how does the abundance fitness read?
A: -0.351 ± 0.094

Q: For GYDPNALYCICRQPHNNRFMICCDRCEEWFHDDCVGISEARGRLLERNGEDYICPNCTI, which abundance fitness is on record?
A: 0.045 ± 0.097

Q: For GYDPNALYCICRQPHNNRFMICCDRCEEWFHYDCVGISEARGRLLERNGEDYICPNCTI, which abundance fitness is on record?
A: -0.421 ± 0.18

Q: For GYDPNALYCICRQPHNNRFMICCDRCEEWFHRDCVGISEARGRLLERNGEDYICPNCTI, which abundance fitness is on record?
A: 0.026 ± 0.05

Q: With GYDPNALYCICRQPHNNRFMICCDRCEEWFHHDCVGISEARGRLLERNGEDYICPNCTI as the variant, how does the abundance fitness read?
A: -0.009 ± 0.13

Q: For GYDPNALYCICRQPHNNRFMICCDRCEEWFHADCVGISEARGRLLERNGEDYICPNCTI, which abundance fitness is on record?
A: 0.067 ± 0.075

Q: Which abundance fitness does the source give for GYDPNALYCICRQPHNNRFMICCDRCEEWFHEDCVGISEARGRLLERNGEDYICPNCTI here?
A: 0.022 ± 0.05

Q: With GYDPNALYCICRQPHNNRFMICCDRCEEWFHPDCVGISEARGRLLERNGEDYICPNCTI as the variant, how does the abundance fitness read?
A: -0.155 ± 0.067

Q: With GYDPNALYCICRQPHNNRFMICCDRCEEWFHIDCVGISEARGRLLERNGEDYICPNCTI as the variant, how does the abundance fitness read?
A: 0.169 ± 0.071

Q: With GYDPNALYCICRQPHNNRFMICCDRCEEWFHSDCVGISEARGRLLERNGEDYICPNCTI as the variant, how does the abundance fitness read?
A: -0.036 ± 0.045

Q: For GYDPNALYCICRQPHNNRFMICCDRCEEWFHQDCVGISEARGRLLERNGEDYICPNCTI, which abundance fitness is on record?
A: -0.054 ± 0.084

Q: With GYDPNALYCICRQPHNNRFMICCDRCEEWFHLDCVGISEARGRLLERNGEDYICPNCTI as the variant, how does the abundance fitness read?
A: 0.025 ± 0.046

Q: With GYDPNALYCICRQPHNNRFMICCDRCEEWFHFDCVGISEARGRLLERNGEDYICPNCTI as the variant, how does the abundance fitness read?
A: -0.016 ± 0.1

Q: For GYDPNALYCICRQPHNNRFMICCDRCEEWFHWDCVGISEARGRLLERNGEDYICPNCTI, which abundance fitness is on record?
A: 0.05 ± 0.069

Q: Which abundance fitness does the source give for GYDPNALYCICRQPHNNRFMICCDRCEEWFHTDCVGISEARGRLLERNGEDYICPNCTI here?
A: 0.084 ± 0.073

Q: For GYDPNALYCICRQPHNNRFMICCDRCEEWFHMDCVGISEARGRLLERNGEDYICPNCTI, which abundance fitness is on record?
A: -0.054 ± 0.045

Q: Which abundance fitness does the source give for GYDPNALYCICRQPHNNRFMICCDRCEEWFHNDCVGISEARGRLLERNGEDYICPNCTI here?
A: -0.179 ± 0.1

Q: For GYDPNALYCICRQPHNNRFMICCDRCEEWFHVDCVGISEARGRLLERNGEDYICPNCTI, which abundance fitness is on record?
A: -0.055 ± 0.059

Q: With GYDPNALYCICRQPHNNRFMICCDRCEEWFHGYCVGISEARGRLLERNGEDYICPNCTI as the variant, how does the abundance fitness read?
A: 0.13 ± 0.082

Q: With GYDPNALYCICRQPHNNRFMICCDRCEEWFHGSCVGISEARGRLLERNGEDYICPNCTI as the variant, how does the abundance fitness read?
A: -0.048 ± 0.059

Q: For GYDPNALYCICRQPHNNRFMICCDRCEEWFHGMCVGISEARGRLLERNGEDYICPNCTI, which abundance fitness is on record?
A: -0.195 ± 0.08

Q: For GYDPNALYCICRQPHNNRFMICCDRCEEWFHGWCVGISEARGRLLERNGEDYICPNCTI, which abundance fitness is on record?
A: -0.237 ± 0.063

Q: For GYDPNALYCICRQPHNNRFMICCDRCEEWFHGCCVGISEARGRLLERNGEDYICPNCTI, which abundance fitness is on record?
A: -0.013 ± 0.068

Q: With GYDPNALYCICRQPHNNRFMICCDRCEEWFHGGCVGISEARGRLLERNGEDYICPNCTI as the variant, how does the abundance fitness read?
A: -0.027 ± 0.04

Q: With GYDPNALYCICRQPHNNRFMICCDRCEEWFHGVCVGISEARGRLLERNGEDYICPNCTI as the variant, how does the abundance fitness read?
A: -0.198 ± 0.054

Q: For GYDPNALYCICRQPHNNRFMICCDRCEEWFHGACVGISEARGRLLERNGEDYICPNCTI, which abundance fitness is on record?
A: -0.154 ± 0.078

Q: With GYDPNALYCICRQPHNNRFMICCDRCEEWFHGRCVGISEARGRLLERNGEDYICPNCTI as the variant, how does the abundance fitness read?
A: -0.002 ± 0.052

Q: For GYDPNALYCICRQPHNNRFMICCDRCEEWFHGLCVGISEARGRLLERNGEDYICPNCTI, which abundance fitness is on record?
A: -0.047 ± 0.045

Q: For GYDPNALYCICRQPHNNRFMICCDRCEEWFHGHCVGISEARGRLLERNGEDYICPNCTI, which abundance fitness is on record?
A: -0.101 ± 0.072

Q: Which abundance fitness does the source give for GYDPNALYCICRQPHNNRFMICCDRCEEWFHGECVGISEARGRLLERNGEDYICPNCTI here?
A: -0.026 ± 0.077

Q: For GYDPNALYCICRQPHNNRFMICCDRCEEWFHGTCVGISEARGRLLERNGEDYICPNCTI, which abundance fitness is on record?
A: 0.008 ± 0.066

Q: For GYDPNALYCICRQPHNNRFMICCDRCEEWFHGQCVGISEARGRLLERNGEDYICPNCTI, which abundance fitness is on record?
A: -0.127 ± 0.11

Q: For GYDPNALYCICRQPHNNRFMICCDRCEEWFHGKCVGISEARGRLLERNGEDYICPNCTI, which abundance fitness is on record?
A: -0.028 ± 0.078

Q: For GYDPNALYCICRQPHNNRFMICCDRCEEWFHGNCVGISEARGRLLERNGEDYICPNCTI, which abundance fitness is on record?
A: -0.259 ± 0.075

Q: For GYDPNALYCICRQPHNNRFMICCDRCEEWFHGPCVGISEARGRLLERNGEDYICPNCTI, which abundance fitness is on record?
A: -0.136 ± 0.059
